Assay results from article PMC4013067.

Conditions: N-glycosylation at N138

Row | Substance | expression_or_secretion | localisation_or_trafficking | other
1 | nicotinic acetylcholine receptor β4 subunit: S140G (sequon disruption), co-expressed with α3 | no change | abolishes, relative surface ELISA −0.04±0.05 vs 1.00 (WT), P<0.001 | 
2 | nicotinic acetylcholine receptor β4 subunit: S140G (sequon disruption), co-expressed with α4 |  | abolishes, relative surface ELISA −0.13±0.22 vs 1.00 (WT), P<0.001 | 
3 | nicotinic acetylcholine receptor β4 subunit: S140G (sequon disruption), co-expressed with α4: ACh and nicotine EC50 |  |  | changes, ACh EC50 9.36±1.35 to 16.7±2.1 µM (P<0.01); nicotine EC50 1.48±0.17 to 2.75±0.27 µM (P<0.01); sag to ACh 0.90 to 0.76 (P
4 | nicotinic acetylcholine receptor β4 subunit: S140G (sequon disruption), co-expressed with α3: nicotine EC50 |  |  | changes, nicotine EC50 22±4 µM (WT) to 48±4 µM, P<0.05; ACh EC50 not significantly changed
5 | nicotinic acetylcholine receptor β4 subunit: M467V+S140G, co-expressed with α3 |  | decreases, relative surface ELISA 0.17±0.02 vs 1.00 (WT), P<0.001 | 
